# Data: the supplement of paper PMC12764529
# ± gives the half width of the 95% confidence interval.
# What was measured:
# [1] = folding stability dG unfold from trypsin proteolysis; higher = more stable
# How it was run: (§1)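 Only designs with AlphaFold2 dimer inter-PAE above 15 were retained; each was a mini-protein under 80 residues with no cysteine, in a PA-tagged cDNA display construct. After digestion with trypsin and chymotrypsin and sequencing, K50 was inferred by Bayesian fitting of counts, and unfolding free energy was derived per protease or combined against a sequence-predicted unfolded-state K50 and a shared folded-state K50.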
# [2] = folding stability dG unfold (combined trypsin and chymotrypsin); higher = more stable
# How it was run: as §1
# [3] = folding stability dG unfold from chymotrypsin proteolysis; higher = more stable
# How it was run: as §1
Sequence,folding stability dG unfold [1],folding stability dG unfold [2],folding stability dG unfold [3]
SAGGSAKILEEALEALKKAKPGEEVEIEIEIEVNGKKYRIKVKVTYDEETGKITIEIVEIEELPEESAGGSA [r15_724_TrROS_Hall],3.23 ± 0.14 kcal/mol,3.8 ± 0.14 kcal/mol,4.11 ± 0.14 kcal/mol
SAGGSAKITPGEEINFMFYNPENGQPFMVRIRIEKITVKRKPKDGKRKVEYKIKIEMSPGMKEITISAGGSA [r15_248_TrROS],2.26 ± 0.15 kcal/mol,3.23 ± 0.3 kcal/mol,3.32 ± 0.11 kcal/mol
SAGGSAKIVIKPDGTIEVEVNGKTFTFPPGAEIEIEEKDGELVLRIRLFNKDGKEVEEFEVTVRIESAGGSA [r15_424_TrROS_Hall],4.36 ± 0.19 kcal/mol,5.48 ± 0.18 kcal/mol,5.51 ± 0.18 kcal/mol
SAGGSAKKKEKKVEKKVITIEVEPGVKTPEEMLEAIRKLKEEYPDTKIIIKASDEQKEALKRLLKESAGGSA [r15_89_TrROS_Hall],0.669 ± 0.16 kcal/mol,0.767 ± 0.3 kcal/mol,0.879 ± 0.14 kcal/mol
SAGGSAKKKEVKELTLVIKVKTEEEALKAAEELIRKLLPPDAEIVEVKVEKVKPGEVYITVKVRLKSAGGSA [r15_183_TrROS_Hall],2.36 ± 0.12 kcal/mol,3.67 ± 0.18 kcal/mol,3.99 ± 0.14 kcal/mol
SAGGSAKKKKGKKKKKIKKIKIKLKLPPGAEIVKIDKEKGVIYIRNKKTNKIYKIDLKTGKIVEIPSAGGSA [r15_452_TrROS_Hall],1.86 ± 0.17 kcal/mol,3.27 ± 0.39 kcal/mol,3.66 ± 0.26 kcal/mol
SAGGSAKKKKKKKKKKKKKKEKKEVVIVIKAKSKEEAEKAVKKLLEELQKKYNIPLPKNVKVIILPSAGGSA [r15_496_TrROS_Hall],3.33 ± 0.11 kcal/mol,3.65 ± 0.37 kcal/mol,4.34 ± 0.24 kcal/mol
SAGGSAKKKKKKKVKKVITIPVGGYKIEITYNKKTKKITVKVYKKNKNGKLLSEEEVKKLVKELLSSAGGSA [r15_735_TrROS_Hall],1.73 ± 0.1 kcal/mol,2.58 ± 0.53 kcal/mol,3.4 ± 0.2 kcal/mol
SAGGSAKKKKTLKITLIIKVKTKEEAEKLAEELAEKLKKLLPEGAKIKVKVTVNKETGYVTVEIELSAGGSA [r15_981_TrROS_Hall],2.88 ± 0.16 kcal/mol,3.38 ± 0.15 kcal/mol,3.64 ± 0.14 kcal/mol
SAGGSAKKPKPVKYNVVITLKDGKTITLTLPFGSLEKAKEFIEKNFPDAIVTYNPKTGNVTVYLPVSAGGSA [r15_313_TrMRF],1.87 ± 0.035 kcal/mol,3.16 ± 0.12 kcal/mol,3.543 ± 0.03 kcal/mol
SAGGSAKKTIKITIEVDGKTIEITKITVNENGEVTIEVKITNKNGKETKTIKITMTVEELKALLKSSAGGSA [r15_56_TrROS_Hall],1.63 ± 0.042 kcal/mol,2.18 ± 0.095 kcal/mol,2.55 ± 0.081 kcal/mol
SAGGSAKKVIVIEVKPGEKITITINGKKVEIVEVKPEGETFLIRNKDTGEIYKITVVDGKVVIEKLSAGGSA [r15_235_TrROS_Hall],2.43 ± 0.09 kcal/mol,3.74 ± 0.22 kcal/mol,4.28 ± 0.076 kcal/mol
SAGGSAKKVRIEIERNADGTLRITVTLPDGTKKEITVDKPGMTLEEIAKKLGLPEGAEITEIERVPSAGGSA [r15_167_TrROS_Hall],2.97 ± 0.067 kcal/mol,2.83 ± 0.075 kcal/mol,2.71 ± 0.035 kcal/mol
SAGGSAKKVVLLTIPPSANLPPNSKLVVKFPNGKEKTYKFNDKPVVILLVTDNNGNFSFGVSVEDKSAGGSA [r15_992_TrMRF],1.87 ± 0.063 kcal/mol,2.68 ± 0.3 kcal/mol,3.44 ± 0.17 kcal/mol
SAGGSAKLIVADVSPLPDGGFAVNVTFVGENGEPVAVKPFYAGSPEELLAALKKFAEENGYEVVVASAGGSA [r15_242_TrMRF],3.6 ± 0.12 kcal/mol,4.43 ± 0.11 kcal/mol,4.57 ± 0.06 kcal/mol
SAGGSAKLNITKILSVEFSEDGTIRIKVENENGELYELEIKVKVIPPPEKPEIDPKYLTPEDLEKYSAGGSA [r15_41_TrMRF],1.43 ± 0.029 kcal/mol,1.6 ± 0.12 kcal/mol,1.61 ± 0.11 kcal/mol
SAGGSAKMKKVKITLYAKVKSLEEAKEIAEEIKKSFPSIEKVEVKTEPLEDGSLLVKVDAIFYVPESAGGSA [r15_726_TrMRF],2.66 ± 0.072 kcal/mol,3.7 ± 0.16 kcal/mol,4.17 ± 0.11 kcal/mol
SAGGSAKNEYITVNITIIVYNPEDGKIEKIINLPIKVPKNLTKEQVINLAKKLLEEKGYEIAEIKGSAGGSA [r15_195_TrMRF],2.22 ± 0.12 kcal/mol,2.85 ± 0.2 kcal/mol,3.24 ± 0.13 kcal/mol

Sequence,folding stability dG unfold [1],folding stability dG unfold [2],folding stability dG unfold [3]
SAGGSAKPDLVRTGPLLLPTAVVLPSVHFADPDVSVSLFRTPNGPPYLALAFIDPETGEPHIVLFPSAGGSA [r15_84_TrMRF],0.934 ± 0.036 kcal/mol,1.44 ± 0.09 kcal/mol,1.71 ± 0.07 kcal/mol
SAGGSAKPELVKKLKEALEEEFPDLKVEVVKVDKKNKKIYIKVKSEEEKKRIAELLKKLGIEVEIESAGGSA [r15_196_TrROS_Hall],3.06 ± 0.25 kcal/mol,3.18 ± 0.21 kcal/mol,3.33 ± 0.079 kcal/mol
SAGGSAKPKIKINIFYPKDGQWYVMIQDPGGEEVMGPWDDIDKIIEAGIPADDVEIEWMPMPPGQFSAGGSA [r15_955_TrROS],1.03 ± 0.014 kcal/mol,1.09 ± 0.05 kcal/mol,1.15 ± 0.048 kcal/mol
SAGGSAKPKIKITITRNEDGSLLVRITLPDGREVELSVDDIKALEDAGINLDDVEITEVEVSPEDLSAGGSA [r15_955_TrROS_Hall],3.92 ± 0.12 kcal/mol,3.36 ± 0.13 kcal/mol,2.71 ± 0.067 kcal/mol
SAGGSAKPKRFVALIKLKGPEGKEIAEIPIVISPDKPEVDIDEIAREIAEKLGVEEIEAEIKEIEESAGGSA [r15_333_TrMRF],0.48 ± 0.13 kcal/mol,0.498 ± 0.28 kcal/mol,0.633 ± 0.2 kcal/mol
SAGGSAKPKVEVEIVDVEFEEVEVNGKKYLVMKMKVKLKETGEYIEVTMVFDLKTNKMYIEVKKLPSAGGSA [r15_528_TrROS_Hall],3.49 ± 0.29 kcal/mol,5.17 ± 0.43 kcal/mol,5.09 ± 0.24 kcal/mol
SAGGSAKRKVEIEIVLSAEELEEAIKEGKPLSEELQKRIEELLKKAEEAGIDEVRIRIVPPGLPEPSAGGSA [r15_304_TrROS_Hall],0.89 ± 0.089 kcal/mol,1.16 ± 0.12 kcal/mol,1.22 ± 0.036 kcal/mol
SAGGSAKRKVEIEIYISREELEEAKKNGKEPTAEAQKQIHRIAKRAREEGMDTVEIKIIPPGQPIPSAGGSA [r15_304_TrROS],-0.0963 ± 0.34 kcal/mol,0.309 ± 0.28 kcal/mol,0.785 ± 0.18 kcal/mol
SAGGSAKTISIIIPFKGLTPEQAIEIAKELEKLLGTKAKIESIPGKGYILVTLELPNKTSYIIIPGSAGGSA [r15_168_TrMRF],1.81 ± 0.041 kcal/mol,2 ± 0.053 kcal/mol,2.08 ± 0.039 kcal/mol
SAGGSAKTVTVEVTLEDGTKITVTVPEDMSEEERKALAQELAEELREKLRQLRELEKEGKEVRIEPSAGGSA [r15_704_TrROS_Hall],1.02 ± 0.023 kcal/mol,2.23 ± 0.051 kcal/mol,2.72 ± 0.042 kcal/mol
SAGGSAKVIMFPSLEEALDLAKEAMGHGKPIQIFLPDGYMIEIEVKPDPDGKPKIDIKWRKLPPDDSAGGSA [r15_761_TrROS],2.02 ± 0.13 kcal/mol,2.55 ± 0.21 kcal/mol,2.8 ± 0.074 kcal/mol
SAGGSAKVIRVKSLEEALKLAEEAKKAGLEVEIKLLPDGSVLITVKPKPKPKVKKVEKKVKLPEGKSAGGSA [r15_761_TrROS_Hall],0.507 ± 0.074 kcal/mol,1.36 ± 0.15 kcal/mol,1.96 ± 0.077 kcal/mol
SAGGSAKVKIEVIELPPGMTEEELRKLAEEKGLKVEKVDKENLLVKITAKSKEEAEKIKKELEEKLSAGGSA [r15_546_TrROS_Hall],0.449 ± 0.14 kcal/mol,0.511 ± 0.27 kcal/mol,0.748 ± 0.13 kcal/mol
SAGGSAKVKYKKDKNGNTYPVVEEKKKIKLTVKIKIFDKNGKLVKEITFPANMTLEEIEKEIKKLLSAGGSA [r15_309_TrROS_Hall],1.16 ± 0.11 kcal/mol,1.61 ± 0.18 kcal/mol,1.79 ± 0.11 kcal/mol
SAGGSAKVVEKDGKLVIELEVPPDMSEEELKKLAEELAKLLPPGAKIEVKYDKETKRVVIVVELKDSAGGSA [r15_210_TrROS_Hall],1.64 ± 0.12 kcal/mol,1.79 ± 0.14 kcal/mol,1.79 ± 0.16 kcal/mol
SAGGSAKYYYIVAEIDLPNKKVRFVKKVKKGDVEKFKAEIKKAFPGKKIKVKVIEFESEEEAKKAASAGGSA [r15_889_TrMRF],3.13 ± 0.14 kcal/mol,4.01 ± 0.088 kcal/mol,4.373 ± 0.043 kcal/mol
SAGGSALADRIAELARELGFEPVEIRYDPETGEVYALVRKPGGLLLRMRVEVDDDELHIEIEPLTDSAGGSA [r15_561_TrMRF],4.34 ± 0.1 kcal/mol,5.18 ± 0.095 kcal/mol,5.27 ± 0.058 kcal/mol
